The record followed here is paper PMC4847750 (Nature structural & molecular biology, 2015).

Positions count from the first letter of the chain named. In names and notes the source's numbering stands.

To fix the notation:
B1: Spy (WT Spy), ATP-independent periplasmic chaperone (natural protein, Escherichia coli, UniProt P77754 24-161, looked up)
chain: ADTTTAAPADAKPMMHHKGKFGPHQDMMFKDLNLTDAQKQQIREIMKGQRDQMKRPPLEERRAMHDIIASDTFDKVKAEAQIAKMEEQRKANMLAHMETQNKIYNILTPEQKKQFNANFEKRLTERPAAKGKMPATAE
B2: Im7-L18A L19A L37A (mimic of unfolded Im7, Im7U) (natural protein, UniProt Q03708 1-87, looked up)
chain: MELKNSISDYTEAEFVQAAKEIEKENVAATDDVLDVALEHFVKITEHPDGTDLIYYPSDNRDDSPEGIVKEIKEWRAANGKPGFKQG
B3: Immunity protein 7, wild type (Im7-WT) (natural protein, UniProt Q03708 1-87, looked up)
chain: B2 chain with A18L, A19L, A37L
B4: Im7-L53A I54A (mimic of the Im7 folding intermediate, Im7I) (natural protein, UniProt Q03708 1-87, looked up)
chain: B2 chain with A18L, A19L, A37L, L53A, I54A

The target in assay [1] is B2. Put plainly: ITC. On the technique in general: ITC needs no label: the signal is the heat of the interaction.
Assay [2] has as its target B4. The experiment in a line: ITC.
Assay [3] has as its target B3. Put plainly: ITC.
Assay [4] addresses B1. The experiment in a line: ITC.
The target of assay [5] is B1. The experiment in a line: stopped-flow fluorescence.

Usually stoichiometry N stands for the number of molecules, sites or subunits per partner or assembly. As usually defined, the Kd is the constant that tells how readily two partners part at equilibrium. A low value points to higher affinity. What is called koff is the rate constant with which the complex falls apart. As a reminder, the kon is a measure of how fast the partners come together. Read a low kon as slower complex formation.

On to B1, for which the “stoichiometry N” value in assay [1], in assay [2] and in assay [3] was 1 Spy dimer per Im7 throughout.
Consider B2, for which the equilibrium dissociation constant (Kd) in assay [4] was 10.4 µM. In assay [5], the koff was 210 s⁻¹ and the kon was determined as 1.3e+07 M⁻¹ s⁻¹.
Consider B3, for which, in assay [4], the Kd is 20.5 µM.
On the same count and under the same terms, next, B4: 3.5 µM.
